Reference: the supplement of paper PMC10126150
± gives the standard deviation of the averaged measurements.

System: ATP
Assay: switch fluorescence ratio, 500 uM ATP over buffer (Cy3 cluster intensity, sum of 5 cycles each) (fold (ratio)); higher = stronger signal-on switching upon ATP binding; sequences stand for … in TCGTCGGCAGCGTCAGATGTGTATAAGAGACAGTTTTTTTTTTTTTTTTTTTTTTTTT…TC
Settings: aptamer strand: ATP DNA aptamer (quencher-CACCTGGGGGAGTATTGCGGAGGAAGG + anchor), 100 nM annealed; ATP concentration: 500 uM
In short: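 Clusters carrying Cy3-labelled switching strands on a modified Illumina MiSeq flow-cell were annealed to 100 nM quencher-labelled ATP aptamer and imaged in selection buffer. They were imaged again after 15 min with 500 uM ATP at 22 °C, over five buffer/ATP cycles with NaOH stripping and re-annealing in between. For each cluster, the fluorescence ratio is the summed Cy3 intensity of the target cycles divided by that of the buffer cycles, averaged per switch-domain sequence. Clusters outside 100-1000 RFU were left out.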
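Further: ATP exposure 15 min at 22 °C before imaging.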

TAAAAAACGG
switch fluorescence ratio: 0.954 ± 0.042

GTTGGCACGA
switch fluorescence ratio: 1.04 ± 0.018

TCAGTAGGCT
switch fluorescence ratio: 1.043 ± 0.0032

AGGTTTTCTA
switch fluorescence ratio: 1.012 ± 0.0036

GGAGGGAACT
switch fluorescence ratio: 1.2 ± 0.34

GAAAGAGTGA
switch fluorescence ratio: 1.01 ± 0.016

AACTGGGGTT
switch fluorescence ratio: 0.9868 ± 0.0035

TGGAGAGGTG
switch fluorescence ratio: 1.02 ± 0.083

AAATCCCGTA
switch fluorescence ratio: 1.01 ± 0.052

GGCATGTTTG
switch fluorescence ratio: 0.9917 ± 0.0027

AGAGGGTGCG
switch fluorescence ratio: 0.934 ± 0.041

ACGAGGGATG
switch fluorescence ratio: 1.01 ± 0.029

GTTTGCGTTA
switch fluorescence ratio: 0.962 ± 0.05

AATAAAGAGT
switch fluorescence ratio: 0.974 ± 0.015

TATGGATTGC
switch fluorescence ratio: 0.988 ± 0.032

GGCCGGTGTA
switch fluorescence ratio: 1.03 ± 0.013

TTGGGGTAAA
switch fluorescence ratio: 1.03 ± 0.044

TTTCTGGTTT
switch fluorescence ratio: 1 ± 0.016

AGGTCCTCTA
switch fluorescence ratio: 0.974 ± 0.059

GGGGTGATAG
switch fluorescence ratio: 1 ± 0.042

TACGGGCACG
switch fluorescence ratio: 1.04 ± 0.028

TTCACGGGTT
switch fluorescence ratio: 1.01 ± 0.021

TGAAAAAAT
switch fluorescence ratio: 0.977 ± 0.051

GGGGTTGAGG
switch fluorescence ratio: 0.993 ± 0.023

GGGGAGCGAT
switch fluorescence ratio: 1.05 ± 0.019

ACATGTGCGT
switch fluorescence ratio: 1.004 ± 0.01

AATTTACATG
switch fluorescence ratio: 1.02 ± 0.024

GTGGAAAGGA
switch fluorescence ratio: 0.991 ± 0.024

ATAGCTTGAG
switch fluorescence ratio: 1.01 ± 0.04

CATGGTTGGG
switch fluorescence ratio: 0.984 ± 0.037

CGGTTCCGTA
switch fluorescence ratio: 0.971 ± 0.047

AGGGTGATTG
switch fluorescence ratio: 1.009 ± 0.0077

GGTTGTTTCG
switch fluorescence ratio: 0.969 ± 0.038

GAGATGGGTA
switch fluorescence ratio: 0.997 ± 0.027

TGTGTGGGTA
switch fluorescence ratio: 0.95768 ± 0.00058

CGGGATAGGG
switch fluorescence ratio: 0.977 ± 0.026

GCAATTGATG
switch fluorescence ratio: 1.04 ± 0.017

CCAGGGGGGT
switch fluorescence ratio: 1.99 ± 1.4

CTGGATTTAA
switch fluorescence ratio: 1.0192 ± 7.7e-05

AGGGTCTGCG
switch fluorescence ratio: 0.981 ± 0.025

TCATGGCGCA
switch fluorescence ratio: 1.07 ± 0.013

AACCGTTTTT
switch fluorescence ratio: 1.05 ± 0.063

TGAATGGTCT
switch fluorescence ratio: 1.01 ± 0.03

AACTGGGGAA
switch fluorescence ratio: 0.973 ± 0.016

AGTGGTGTTG
switch fluorescence ratio: 0.9577 ± 0.0092

AAATTGTTTG
switch fluorescence ratio: 0.989 ± 0.041

GAATTGGAAG
switch fluorescence ratio: 0.968 ± 0.025

GGTTGGAGTT
switch fluorescence ratio: 0.984 ± 0.0049

TATATGCACT
switch fluorescence ratio: 1.07 ± 0.024

CGTATCTGAC
switch fluorescence ratio: 1.04 ± 0.014

CGTAAGTTTT
switch fluorescence ratio: 0.98 ± 0.03

AGGGGGGCTC
switch fluorescence ratio: 0.98 ± 0.04

ATTTTTCGGC
switch fluorescence ratio: 0.99 ± 0.02

CTGTAATTGT
switch fluorescence ratio: 0.98817 ± 0.00075

TTTTTATTTT
switch fluorescence ratio: 1.01 ± 0.074

CCCTGAGGAT
switch fluorescence ratio: 1.01 ± 0.031

ATGAAATTTT
switch fluorescence ratio: 1.0061 ± 0.00088

AACTGTAGAC
switch fluorescence ratio: 1.121 ± 0.0022

TAACAGGTTT
switch fluorescence ratio: 0.989 ± 0.016

ATAAGGGTAA
switch fluorescence ratio: 1 ± 0.013

GAGGGATTCT
switch fluorescence ratio: 0.99037 ± 0.00064

GGTGATGTTG
switch fluorescence ratio: 0.9611 ± 0.0055

TTTGCACGTT
switch fluorescence ratio: 1.03 ± 0.037

GTGGCGGGGG
switch fluorescence ratio: 1.01 ± 0.026

CACTTGTTTT
switch fluorescence ratio: 1.01 ± 0.011

AATAGTTTAG
switch fluorescence ratio: 0.9918 ± 0.0035

AGGCGATCGG
switch fluorescence ratio: 0.99 ± 0.023

ACCAGCTTTC
switch fluorescence ratio: 1.16 ± 0.015

CTGGTTAGGC
switch fluorescence ratio: 1.01 ± 0.034

CGCCTTTACC
switch fluorescence ratio: 1.18 ± 0.013

AGGATCTATG
switch fluorescence ratio: 1.03 ± 0.021

GATTTTGGGT
switch fluorescence ratio: 1.02 ± 0.038

TTTGGGGCGT
switch fluorescence ratio: 1 ± 0.035

CGTACTCTCA
switch fluorescence ratio: 1.037 ± 0.006

TCGGCCGGGA
switch fluorescence ratio: 1.05 ± 0.011

ACATTAGTTA
switch fluorescence ratio: 1.05 ± 0.033

GGGTAATTTT
switch fluorescence ratio: 1.02 ± 0.047

AAGCAGCCCT
switch fluorescence ratio: 1.02 ± 0.015

ATCATTGAA
switch fluorescence ratio: 0.9864 ± 0.0087

TTTTTCAGGA
switch fluorescence ratio: 0.975 ± 0.024

GGTGCCTGGG
switch fluorescence ratio: 1 ± 0.0011

TGGGTGTCGG
switch fluorescence ratio: 1.04 ± 0.019

TACCCGCGCG
switch fluorescence ratio: 1.026 ± 0.003

GGTCTTTCG
switch fluorescence ratio: 0.9794 ± 0.0025

CCTAGGTCAT
switch fluorescence ratio: 1.12 ± 0.15

TTTTAGGTAA
switch fluorescence ratio: 0.9745 ± 0.0034

TAATGACGCT
switch fluorescence ratio: 0.997 ± 0.027

GCGTTGCCAG
switch fluorescence ratio: 0.9816 ± 0.0081

TGGTACGTAG
switch fluorescence ratio: 1.03 ± 0.034

CGTCCTTTTT
switch fluorescence ratio: 1.05 ± 0.039

ATTAGAATGG
switch fluorescence ratio: 1 ± 0.01

TATGAAGGGA
switch fluorescence ratio: 0.99 ± 0.021

GGGGTTGAAG
switch fluorescence ratio: 0.979 ± 0.01

TGAGTAGGGG
switch fluorescence ratio: 0.994 ± 0.017

CCAGGTGGGA
switch fluorescence ratio: 3.53 ± 1.5

GAGGCTAGGT
switch fluorescence ratio: 1.01 ± 0.029

ATACTGTTGA
switch fluorescence ratio: 0.973 ± 0.013

ATAGTGGTGA
switch fluorescence ratio: 1.03 ± 0.048

TTTTTCTTGT
switch fluorescence ratio: 1.01 ± 0.047

TACTAATGGA
switch fluorescence ratio: 1.01 ± 0.041

ACGACCTTGT
switch fluorescence ratio: 1.03 ± 0.018

TATGCCTTTG
switch fluorescence ratio: 0.987 ± 0.033

GGATTAATCT
switch fluorescence ratio: 0.998 ± 0.019

GTGAAAGGGG
switch fluorescence ratio: 1.11 ± 0.17

GCTGTTGCTG
switch fluorescence ratio: 1 ± 0.035

AGGCATCGGA
switch fluorescence ratio: 0.9953 ± 0.0063

CATTTTGGTC
switch fluorescence ratio: 1.002 ± 0.0039

CAGGTATGAA
switch fluorescence ratio: 1 ± 0.02

GGGTCTGGTA
switch fluorescence ratio: 1.02 ± 0.038

GTGAGATGGA
switch fluorescence ratio: 0.953 ± 0.03

TATGTGTGTT
switch fluorescence ratio: 0.9873 ± 0.0062

TTTGCTGACG
switch fluorescence ratio: 1.02 ± 0.055

TATCGGTTAT
switch fluorescence ratio: 0.984 ± 0.013

GGCGACGGGG
switch fluorescence ratio: 1 ± 0.02

GGGTGACAAT
switch fluorescence ratio: 1 ± 0.04

TTAGAGGGAC
switch fluorescence ratio: 0.971 ± 0.014

GCTCGGGGTG
switch fluorescence ratio: 0.986 ± 0.032

TTTGGGAAAA
switch fluorescence ratio: 1.05 ± 0.038

GAGATAGTAG
switch fluorescence ratio: 1 ± 0.015

GTATTAGCTG
switch fluorescence ratio: 0.974 ± 0.0089

CACAAAAATT
switch fluorescence ratio: 1.01 ± 0.024
